Experimental findings from article PMC5025710, “The N-terminal domain plays a crucial role in the structure of a full-length human mitochondrial Lon protease” (Scientific Reports, 2016) are described below.

Data set [1] concerns the target proteolytically inactive human mitochondrial Lon protease mutant hLon S855A (human) (UniProt P36776). Put plainly: cryo-EM structure; hLon S855A incubated with 1 mM ADP, 1 mg/ml diluted 5× in buffer B (20 mM HEPES pH 8.0, 150 mM NaCl, 5 mM MgCl2); map at 21 Å.
The target is the same in data set [2]. Put plainly: cryo-EM structure; hLon S855A incubated with 1 mM AMP-PNP, 1 mg/ml diluted 5× in buffer B (20 mM HEPES pH 8.0, 150 mM NaCl, 5 mM MgCl2); map at 15 Å.
Data set [3] concerns the molecule itself. Put plainly: cryo-EM 2D class averages; hLonΔ270, 1 mg/ml diluted 5× in buffer B; 2D class averages (Relion) compared with projections of five and six fitted 3M6A subunits; no 3D map.
Data set [4] deals with T1, hLonΔ270 mutant (Δ1–270), human Lon lacking its first 270 amino acids (human) (UniProt P36776).
T1 sequence: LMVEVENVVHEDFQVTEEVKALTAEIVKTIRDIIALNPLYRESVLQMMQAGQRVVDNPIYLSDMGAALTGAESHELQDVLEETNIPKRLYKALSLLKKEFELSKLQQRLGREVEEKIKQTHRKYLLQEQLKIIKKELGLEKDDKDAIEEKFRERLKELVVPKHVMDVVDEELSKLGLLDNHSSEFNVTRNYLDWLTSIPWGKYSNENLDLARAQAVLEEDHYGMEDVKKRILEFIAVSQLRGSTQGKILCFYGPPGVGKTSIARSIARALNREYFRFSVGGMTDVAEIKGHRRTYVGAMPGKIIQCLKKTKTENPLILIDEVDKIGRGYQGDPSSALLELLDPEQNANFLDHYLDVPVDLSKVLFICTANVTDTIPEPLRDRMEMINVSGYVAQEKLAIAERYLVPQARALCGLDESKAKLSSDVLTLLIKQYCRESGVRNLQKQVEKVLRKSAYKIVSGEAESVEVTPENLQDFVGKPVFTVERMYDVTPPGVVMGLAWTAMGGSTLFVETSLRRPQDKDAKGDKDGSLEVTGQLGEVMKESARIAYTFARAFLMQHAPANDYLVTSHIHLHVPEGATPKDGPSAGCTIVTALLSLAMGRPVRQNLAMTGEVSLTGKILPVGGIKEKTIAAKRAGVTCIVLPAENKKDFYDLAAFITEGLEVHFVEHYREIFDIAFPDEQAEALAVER

For orientation: stoichiometry N means a count of units in the complex or per binding partner. For “proteolytically inactive human mitochondrial Lon protease mutant hLon S855A (from UniProt P36776 68-959) (enzyme)”, the stoichiometry N in data set [1] and in data set [2] was 6 in each case.

B1: hLonΔ270 mutant (Δ1–270), human Lon lacking its first 270 amino acids (domain or fragment, UniProt P36776 271-959, looked up)
chain: T1 sequence
notes: primers Lon_271_FW and Lon_960_RV (to the stop codon); A few vector residues probably remain after PreScission cleavage (surmised from the primer); also called shortened hLon; source: in-fusion cloning into pOPINJ; not shown: 6×His-GST, N-terminal, cleaved
With B1, the “stoichiometry N” value in data set [3] is 6.

B2: β-casein (natural protein)
chain: RELEELNVPGEIVESLSSSEESITRINKKIEKFQSEEQQQTEDELQDKIHPFAQTQSLVYPFPGPIPNSLPQNIPPLTQTPVVVPPFLQPEVMGVSKVKEAMAPKHKEMPFPKYPVEPFTESQSLTLTDVENLHLPLPLLQSWMHQPHQPLPPTVMFPPQSVLSLSQSKVLPVPQKAVPYPQRDMPIQAFLLYQEPVLGPVRGPFPIIV
In data set [4], B2 came in with a stimulation of the ATPase activity of hLonΔ270 by β-casein (25 μg β-casein, 5 μg hLon, 37 °C) of 2 fold and a stimulation of the peptidase activity of hLonΔ270 (glutaryl-Ala-Ala-Phe-MNA) by β-casein (25 μg β-casein, 5 μg hLon, 37 °C) of 2 fold.
